Tests used:
[1] = target: complex of wild-type MBP-Nef with the α(1–398)/σ2 hemicomplex of AP2 (HIV-1 (NL4.3) | not stated) (UniProt Q90VU7); experiment: fluorescence polarisation; α(1–398)/σ2 (20 µM) and MBP-Nef WT or mutant (30 µM) mixed 30 min at room temperature, then 200 nM TMR-NTT, 15 μL, 1 or 2 h at room temperature; single concentration; control is probe only
[2] = target: TMR-NTT (TMR-labeled Serinc3 NTT(Cys16) peptide, MBP removed) (UniProt Q13530); experiment: fluorescence polarisation; conditions: read off a plot

Substance | FP signal [1] [mP] | response [2] [mP]
TMR-NTT (TMR-labeled Serinc3 NTT(Cys16) peptide, MBP removed) (from UniProt Q13530 1-39) | 90 | –
complex of wild-type MBP-Nef with the α(1–398)/σ2 hemicomplex of AP2 (from UniProt Q90VU7;P18484;P53680) D123K | – | 45
complex of wild-type MBP-Nef with the α(1–398)/σ2 hemicomplex of AP2 (from UniProt Q90VU7;P18484;P53680) F121D | – | 20
complex of wild-type MBP-Nef with the α(1–398)/σ2 hemicomplex of AP2 (from UniProt Q90VU7;P18484;P53680) L37D | – | 37
complex of wild-type MBP-Nef with the α(1–398)/σ2 hemicomplex of AP2 (from UniProt Q90VU7;P18484;P53680) L112D | – | 16
complex of wild-type MBP-Nef with the α(1–398)/σ2 hemicomplex of AP2 (from UniProt Q90VU7;P18484;P53680) W57A; L58A | – | 55
